The target of this experiment is T1, purified RASSF1 RA domain (human, UniProt Q9NS23-2 124-288).
T1 sequence: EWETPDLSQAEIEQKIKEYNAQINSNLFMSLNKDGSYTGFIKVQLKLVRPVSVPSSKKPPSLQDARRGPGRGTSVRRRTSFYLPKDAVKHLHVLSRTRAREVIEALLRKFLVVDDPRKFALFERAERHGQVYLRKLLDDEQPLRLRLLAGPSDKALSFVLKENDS
Nature of the experiment: ITC.

B1: GEM-GDP (purified GEM used for ITC) (domain or fragment)
chain: STDSVISSESGNTYYRVVLIGEQGVGKSTLANIFAGVHDSMDSDCEVLGEDTYERTLMVDGESATIILLDMWENKGENEWLHDHCMQVGDAYLIVYSITDRASFEKASELRIQLRRARQTEDIPIILVGNKSDLVRCREVSV
In turn, B1 showed an equilibrium dissociation constant (Kd) of 9.6 µM.

The values above are taken from doi:10.1101/2020.02.05.923433 (bioRxiv, 2020).
